From the supplement of paper PMC9876800

Test system: peptide library, one residue held at a place counted from the S/T acceptor
Test: relative phosphorylation of the sub-library (ratio to the mean residue at this position); higher = residue favoured
Settings: human
Method in brief: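 Relative sub-library phosphorylation, a ratio to the mean residue at that position, was obtained by phosphorimaging and densitometry of spots on streptavidin membranes. Before capture, purified recombinant kinases were incubated for 90 min under kinase-specific conditions with 50 μM biotinylated degenerate peptide sub-libraries and 50 μM ATP spiked with γ-32P-ATP. Each sub-library fixed one residue at one position around a central Ser/Thr.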

“SRPK2, construct: Full length (from UniProt P78362)” gave a relative phosphorylation (A fixed, at +1) of 0.712, a relative phosphorylation (A fixed, at +2) of 1.14 and a relative phosphorylation (A fixed, at +3) of 0.669. The relative phosphorylation (A fixed, at +4) was 0.878, the relative phosphorylation (A fixed, at -1) was 0.911 and the relative phosphorylation (A fixed, at -2) was 1.6. It also gave a relative phosphorylation (A fixed, at -3) of 0.473, a relative phosphorylation (A fixed, at -4) of 0.89 and a relative phosphorylation (A fixed, at -5) of 1.01. It also gave a relative phosphorylation (D fixed, at +1) of 0.338, a relative phosphorylation (D fixed, at +2) of 1.38 and a relative phosphorylation (D fixed, at +3) of 0.556. For the same substance, the relative phosphorylation (D fixed, at +4) was 0.992, the relative phosphorylation (D fixed, at -1) was 0.577 and the relative phosphorylation (D fixed, at -2) was 2.3. For the same substance, the relative phosphorylation (D fixed, at -3) was 0.364, the relative phosphorylation (D fixed, at -4) was 0.723 and the relative phosphorylation (D fixed, at -5) was 0.669. For the same substance, the relative phosphorylation (E fixed, at +1) was 0.495, the relative phosphorylation (E fixed, at +2) was 1.2 and the relative phosphorylation (E fixed, at +3) was 0.406. It also gave a relative phosphorylation (E fixed, at +4) of 0.747, a relative phosphorylation (E fixed, at -1) of 0.626 and a relative phosphorylation (E fixed, at -2) of 1.46. The relative phosphorylation (E fixed, at -3) was 0.305, the relative phosphorylation (E fixed, at -4) was 0.685 and the relative phosphorylation (E fixed, at -5) was 0.713. It also gave a relative phosphorylation (F fixed, at +1) of 0.35, a relative phosphorylation (F fixed, at +2) of 1.12 and a relative phosphorylation (F fixed, at +3) of 0.427. For the same substance, the relative phosphorylation (F fixed, at +4) was 0.715, the relative phosphorylation (F fixed, at -1) was 0.468 and the relative phosphorylation (F fixed, at -2) was 0.64. For the same substance, the relative phosphorylation (F fixed, at -3) was 0.265, the relative phosphorylation (F fixed, at -4) was 0.697 and the relative phosphorylation (F fixed, at -5) was 0.971. For the same substance, the relative phosphorylation (G fixed, at +1) was 0.597, the relative phosphorylation (G fixed, at +2) was 0.77 and the relative phosphorylation (G fixed, at +3) was 0.921. The relative phosphorylation (G fixed, at +4) was 1.16, the relative phosphorylation (G fixed, at -1) was 0.901 and the relative phosphorylation (G fixed, at -2) was 1.11. It also gave a relative phosphorylation (G fixed, at -3) of 0.363, a relative phosphorylation (G fixed, at -4) of 0.818 and a relative phosphorylation (G fixed, at -5) of 1.12. The relative phosphorylation (H fixed, at +1) was 0.663, the relative phosphorylation (H fixed, at +2) was 1.01 and the relative phosphorylation (H fixed, at +3) was 0.699. It also gave a relative phosphorylation (H fixed, at +4) of 1.11, a relative phosphorylation (H fixed, at -1) of 1.6 and a relative phosphorylation (H fixed, at -2) of 1.56. For the same substance, the relative phosphorylation (H fixed, at -3) was 0.44, the relative phosphorylation (H fixed, at -4) was 1.11 and the relative phosphorylation (H fixed, at -5) was 1.15. For the same substance, the relative phosphorylation (I fixed, at +1) was 0.667, the relative phosphorylation (I fixed, at +2) was 0.647 and the relative phosphorylation (I fixed, at +3) was 0.369. For the same substance, the relative phosphorylation (I fixed, at +4) was 0.783, the relative phosphorylation (I fixed, at -1) was 0.361 and the relative phosphorylation (I fixed, at -2) was 0.298. For the same substance, the relative phosphorylation (I fixed, at -3) was 0.222, the relative phosphorylation (I fixed, at -4) was 0.549 and the relative phosphorylation (I fixed, at -5) was 0.593. It also gave a relative phosphorylation (K fixed, at +1) of 1.6, a relative phosphorylation (K fixed, at +2) of 2.02 and a relative phosphorylation (K fixed, at +3) of 1.29. The relative phosphorylation (K fixed, at +4) was 1.51, the relative phosphorylation (K fixed, at -1) was 2.2 and the relative phosphorylation (K fixed, at -2) was 0.995. For the same substance, the relative phosphorylation (K fixed, at -3) was 0.918, the relative phosphorylation (K fixed, at -4) was 1.71 and the relative phosphorylation (K fixed, at -5) was 1.75. It also gave a relative phosphorylation (L fixed, at +1) of 0.852, a relative phosphorylation (L fixed, at +2) of 0.772 and a relative phosphorylation (L fixed, at +3) of 0.407. For the same substance, the relative phosphorylation (L fixed, at +4) was 0.875, the relative phosphorylation (L fixed, at -1) was 0.671 and the relative phosphorylation (L fixed, at -2) was 0.361. The relative phosphorylation (L fixed, at -3) was 0.232, the relative phosphorylation (L fixed, at -4) was 0.644 and the relative phosphorylation (L fixed, at -5) was 0.648. The relative phosphorylation (M fixed, at +1) was 0.839, the relative phosphorylation (M fixed, at +2) was 0.547 and the relative phosphorylation (M fixed, at +3) was 0.383. The relative phosphorylation (M fixed, at +4) was 0.794, the relative phosphorylation (M fixed, at -1) was 0.693 and the relative phosphorylation (M fixed, at -2) was 0.538. For the same substance, the relative phosphorylation (M fixed, at -3) was 0.288, the relative phosphorylation (M fixed, at -4) was 0.719 and the relative phosphorylation (M fixed, at -5) was 0.754. It also gave a relative phosphorylation (N fixed, at +1) of 1.11, a relative phosphorylation (N fixed, at +2) of 0.934 and a relative phosphorylation (N fixed, at +3) of 0.666. It also gave a relative phosphorylation (N fixed, at +4) of 1.02, a relative phosphorylation (N fixed, at -1) of 1.09 and a relative phosphorylation (N fixed, at -2) of 1.22. It also gave a relative phosphorylation (N fixed, at -3) of 0.354, a relative phosphorylation (N fixed, at -4) of 0.988 and a relative phosphorylation (N fixed, at -5) of 0.999. For the same substance, the relative phosphorylation (P fixed, at +1) was 4.58, the relative phosphorylation (P fixed, at +2) was 1.22 and the relative phosphorylation (P fixed, at +3) was 1.72. The relative phosphorylation (P fixed, at +4) was 1.06, the relative phosphorylation (P fixed, at -1) was 1.44 and the relative phosphorylation (P fixed, at -2) was 0.822. It also gave a relative phosphorylation (P fixed, at -3) of 0.347, a relative phosphorylation (P fixed, at -4) of 1.84 and a relative phosphorylation (P fixed, at -5) of 0.758. It also gave a relative phosphorylation (Q fixed, at +1) of 1.08, a relative phosphorylation (Q fixed, at +2) of 0.939 and a relative phosphorylation (Q fixed, at +3) of 0.687. The relative phosphorylation (Q fixed, at +4) was 1.07, the relative phosphorylation (Q fixed, at -1) was 1.66 and the relative phosphorylation (Q fixed, at -2) was 0.714. It also gave a relative phosphorylation (Q fixed, at -3) of 0.528, a relative phosphorylation (Q fixed, at -4) of 0.956 and a relative phosphorylation (Q fixed, at -5) of 0.834. It also gave a relative phosphorylation (R fixed, at +1) of 1.23, a relative phosphorylation (R fixed, at +2) of 1.13 and a relative phosphorylation (R fixed, at +3) of 6.39. For the same substance, the relative phosphorylation (R fixed, at +4) was 1.59, the relative phosphorylation (R fixed, at -1) was 1.92 and the relative phosphorylation (R fixed, at -2) was 1.63. For the same substance, the relative phosphorylation (R fixed, at -3) was 11, the relative phosphorylation (R fixed, at -4) was 2.28 and the relative phosphorylation (R fixed, at -5) was 2.36. For the same substance, the relative phosphorylation (V fixed, at +1) was 1.07, the relative phosphorylation (V fixed, at +2) was 0.976 and the relative phosphorylation (V fixed, at +3) was 0.442. The relative phosphorylation (V fixed, at +4) was 0.815, the relative phosphorylation (V fixed, at -1) was 0.726 and the relative phosphorylation (V fixed, at -2) was 0.449. The relative phosphorylation (V fixed, at -3) was 0.246, the relative phosphorylation (V fixed, at -4) was 0.696 and the relative phosphorylation (V fixed, at -5) was 0.769. It also gave a relative phosphorylation (W fixed, at +1) of 0.407, a relative phosphorylation (W fixed, at +2) of 0.581 and a relative phosphorylation (W fixed, at +3) of 0.502. It also gave a relative phosphorylation (W fixed, at +4) of 1.03, a relative phosphorylation (W fixed, at -1) of 0.522 and a relative phosphorylation (W fixed, at -2) of 0.614. For the same substance, the relative phosphorylation (W fixed, at -3) was 0.351, the relative phosphorylation (W fixed, at -4) was 0.898 and the relative phosphorylation (W fixed, at -5) was 1.07. It also gave a relative phosphorylation (Y fixed, at +1) of 0.412, a relative phosphorylation (Y fixed, at +2) of 0.618 and a relative phosphorylation (Y fixed, at +3) of 0.474. It also gave a relative phosphorylation (Y fixed, at +4) of 0.863, a relative phosphorylation (Y fixed, at -1) of 0.629 and a relative phosphorylation (Y fixed, at -2) of 0.695. For the same substance, the relative phosphorylation (Y fixed, at -3) was 0.319, the relative phosphorylation (Y fixed, at -4) was 0.794 and the relative phosphorylation (Y fixed, at -5) was 0.829. It also gave a relative phosphorylation (pThr fixed, at +1) of 0.513, a relative phosphorylation (pThr fixed, at +2) of 0.839 and a relative phosphorylation (pThr fixed, at +3) of 0.67. The relative phosphorylation (pThr fixed, at +4) was 0.956, the relative phosphorylation (pThr fixed, at -1) was 0.411 and the relative phosphorylation (pThr fixed, at -2) was 0.555. For the same substance, the relative phosphorylation (pThr fixed, at -3) was 0.363, the relative phosphorylation (pThr fixed, at -4) was 0.65 and the relative phosphorylation (pThr fixed, at -5) was 0.55. It also gave a relative phosphorylation (pTyr fixed, at +1) of 0.696, a relative phosphorylation (pTyr fixed, at +2) of 0.733 and a relative phosphorylation (pTyr fixed, at +3) of 0.646. The relative phosphorylation (pTyr fixed, at +4) was 0.951, the relative phosphorylation (pTyr fixed, at -1) was 0.763 and the relative phosphorylation (pTyr fixed, at -2) was 1.09. It also gave a relative phosphorylation (pTyr fixed, at -3) of 0.45, a relative phosphorylation (pTyr fixed, at -4) of 1.25 and a relative phosphorylation (pTyr fixed, at -5) of 0.809.
